Experimental data as given in patent publication US20220288169A1, “COMPOSITIONS AND METHODS FOR THE TREATMENT AND PREVENTION OF HYPOGLYCEMIC COMPLICATIONS” (The Board of Supervisors of Louisiana State University and …, priority 2019, published 2022).
“And” between values parts separate entries of the source, which are not always exact repeats. Equal entries are not always repeated. “Also recorded” adds a separate entry of the source. Where two headings read alike, the source gives them in different places.

Key:
[1] = system: male Sprague Dawley rats exposed to 3dRH (rat model of HAAF); format: in vivo
Method: For Experiment 5, a total of 21 rats were subjected to a three day recurrent hypoglycemia (3dRH) paradigm adapted from previous studies (44). […] On each of the three days of the paradigm, all rats received an IP injection of either PBS or leptin at ≈1.5 h prior to lights off. […] On the fourth day, all three cohorts of rats were then subjected to a hypoglycemic ITT for determination of hypoglycemia-induced epinephrine, glucagon, and corticosterone secretion. Leptin levels were also assayed in each group at the conclusion of the ITT. […] For mice, trunk blood was collected following CO2 euthanasia. […] Louis, Mo.). […] Rat leptin levels were determined by […], MilliporeSigma, St. Louis, Mo.). […] Methods: In experiment one, 3 groups of mice (two CR groups and one ad-lib fed control group) received either twice daily leptin (0.5-1 μg/g, IP) or PBS. In experiment two, 3 groups of rats (two 3dRH and one control) received daily leptin or PBS injections (0.3-0.7 mg/kg, IP).

starved rats = conditions: acute leptin infusion during starvation, cited from earlier work
[2] = system: male C57BL/6J mice exposed to 60% caloric restriction (CR mice); format: in vivo, mouse
Method: In order to overcome differences in baseline blood glucose levels between groups, a variable dose of insulin (IP) was used to produce equivalent exposure to hypoglycemia (A). […] Data were analyzed via one or two way ANOVA. Group differences were determined via Bonferroni's multiple comparison test with significance levels as follows: *- p<0.05; n=7-8/group. A total of 149 mice were subjected to the severe caloric restriction and refeeding paradigm across four separate experiments. The following procedures were identical across all four experiments. Animals were randomly assigned to one of two groups: Mice exposed to severe caloric restriction for six days (CR mice) or ad libitum fed mice (Ad-lib mice). […] Following a five-day acclimation period to wire-bottomed cages (Days 0-4), food intake was monitored daily in each mouse for six days prior to initiation of caloric restriction, and each mouse's average daily food intake was determined (Days 5-10). […] Body weight and free-living blood glucose were measured daily immediately prior to feeding. […] During the refeeding period, food intake, free-living blood glucose, and body weight continued to be measured daily at 1.5 h before lights off in both CR and Ad-lib mice up to the terminal day of the experiments. […] Rat leptin levels were determined by […], MilliporeSigma, St. Louis, Mo.). […]

[3] = system: rats exposed to a single bout of hypoglycemia or 3dRH; conditions: cited from earlier work
[4] = acute ICV leptin in 3dRH rats, first 40 min of 90 min hypoglycemic challenge, relative to 3dRH rats not treated with leptin
[5] = acute ICV leptin infusion, rats exposed to a single bout of hypoglycemia

B1: leptin (protein, UniProt P50596 22-167, looked up)
Leptin: VPIHKVQDDTKTLIKTIVTRINDISHTQSVSARQRVTGLDFIPGLHPILSLSKMDQTLAVYQQILTSLPSQNVLQIAHDLENLRDLLHLLAFSKSCSLPQTRGLQKPESLDGVLEASLYSTEVVALSRLQGSLQDILQQLDLSPEC
notes: hormone secreted by adipocytes
hypoglycemia-induced glucagon levels ([1]; 3dRH paradigm with leptin): not affected | hypoglycemia-induced glucagon levels ([1]; 3dRH+Leptin rats, 60 min of ITT, mean (SD)): 34 pmol/L | increase of epinephrine levels relative to untreated 3dRH rats ([1]; leptin concurrent with antecedent hypoglycemia): 50% | leptin levels at the 60-minute time point relative to controls ([1]; rat, in vivo): significantly increased | serum leptin levels at the conclusion of the ITT ([1]; rat, in vivo): 5.1 ng/mL | effect on blood glucose (starved rats; physiological doses): reducing blood glucose | effect on blood glucose (starved rats; supraphysiological doses): increasing blood glucose | hypoglycemia-induced glucagon levels ([2]; CR+Leptin mice, twice daily IP leptin 0.5-1 μg/g during CR, 60 min of ITT, Day 1 of refeeding, mean (SD)): 91.7 pmol/L and 78.1 pmol/L | serum glucagon levels in response to the ITT ([2]; Example 7, leptin-treated CR mice, 0.5-1 μg/g IP twice daily, after 16 h refeeding and 6 h fast): 78.0 ± 16.8 pg/mL | epinephrine levels increased by [3, 4]: 25% | glucagon levels increased by [3, 4]: 45% | epinephrine levels increased by [3, 5]: 19% | glucagon levels decreased by [3, 5]: 50% | rescue of counter-regulation by acute leptin ([3]; acute leptin administration, 3dRH rats): did not restore counter-regulation; also recorded: does not reverse the effects of 3dRH; also recorded: did not correct the deficit in epinephrine release; also recorded: does not rescue the effect | epinephrine levels lower than untreated rats exposed to a single bout of hypoglycemia ([3]; leptin treated 3dRH rats): 60%
